Assay results reported in IntAct's records for PubMed 15479639.

B1: Chaperone ric-8 (Caenorhabditis elegans), Q9GSX9-1 (parent)
chain: MSEELHSDLIASIFGGKPAKIEEFFSKWNFANAAVSKFDMANSAKNELGDRICEVIENGELTHVLLETIKILSREKDGLEGLLNDPLCDKILAFAELSSNENNSKTVHTLMEAQKCLINTLFHSQRMRDRFYANPKTGENLQFFLGEFEENRRKTSSIDWIRLLNPVQAAEIWYFYHRIAFIATALGREFQKNWANDPKTIDSLLLAVEICTNRSENSTQDINRATEALKTFFNVFCHFHGDVKAIDHKNAAKTCQILRDAICSDVLTDDVVQSAIHCLSVPPLPMVLSVLCGKNSKNNGGENEEEKFFVEELSNMQLTEAILMHLDKQLTKVVALLLNDAPNQQQNPMLSAEASTLTDLVGPYFQVLARLCTDSKYVRRYCRIRVIPPLVSEEVQKRPEENNTLRGRIARIMMLPSSTKDVAAEFLFIICKRSVNRMIKYLGFGHSAGHLANLGLLGQINQPKHASDSEDSETEDYNQIKDSVNPVTGAIYPSDHGSALAGMSEEQKEYEAMKLVDAMNQMMETGIVKPGTIGDDGKIREVSHVLELLKNAPEPAPAENSDSDEE

Variants of: B1
Settings: with gnao_caeel goa-1, P51875
gnao_caeel goa-1, P51875, sequence (P51875 whole entry): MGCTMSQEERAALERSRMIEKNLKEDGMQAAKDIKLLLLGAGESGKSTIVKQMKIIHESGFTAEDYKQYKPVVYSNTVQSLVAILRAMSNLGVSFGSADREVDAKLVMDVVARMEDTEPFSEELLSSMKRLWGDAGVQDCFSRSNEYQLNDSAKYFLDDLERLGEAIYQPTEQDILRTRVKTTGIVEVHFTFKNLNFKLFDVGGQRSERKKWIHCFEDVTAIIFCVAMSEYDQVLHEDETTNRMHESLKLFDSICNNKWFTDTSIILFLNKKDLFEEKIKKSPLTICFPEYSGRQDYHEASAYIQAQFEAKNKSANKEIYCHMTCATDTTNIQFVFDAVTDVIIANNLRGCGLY

Variant | effect of a mutation on the interaction
L267F | increasing interaction
A275E | decreasing interaction
